This note sets out measurements from the supplement of paper PMC12042874.

± gives the uncertainty stated by the source.

The series is described as follows: amyloid nucleation score (Sup35N fusion, yeast selection) (log enrichment); library NNK3; higher = more nucleation; inactive = no reads after selection. The method in brief: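 Sup35N fusions to peptides of 20 random codons were expressed in psi-negative yeast, induced 24 hours with 100 μM copper sulfate, and grown 7 days at 30°C on medium lacking adenine and uracil. Input and output plasmid inserts were sequenced by Illumina. The nucleation score is the DiMSum log enrichment of output over input reads, centred on the mode score of non-aggregating sequences. Sequences with under 100 input reads were excluded.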

For the substance NWFPGTRGRLLQVTLGYLVD, the amyloid nucleation score result is “inactive”. CANFRV: the amyloid nucleation score result is “inactive”.

As for SLLALNRSPVLMRYISEHCN, the amyloid nucleation score result was “inactive”. Regarding GQAVNYFGGA, the amyloid nucleation score result was “inactive”. As to WWCMNRCEDAASINGIVARK, the amyloid nucleation score result is “inactive”. Take LAQMVNGRITDHYTLFRSRT: the amyloid nucleation score result was “inactive”. Turning to QTSMVVDDYCILYVLHWGWG, the amyloid nucleation score entry is “inactive”. For the substance FRWNNCGSMVRISTPSYSFL, the amyloid nucleation score entry is “inactive”. The value for WVFSSNVRKYMRALRRRYSD was “inactive”. As to YYPSEQTIGWPKLTFVDVVL, the amyloid nucleation score entry was “inactive”. As for KVRSVDCRNTSNKDHW, the amyloid nucleation score entry was “inactive”.

As for GSLFVI, the amyloid nucleation score entry was “inactive”.

Take YQGKLI: the amyloid nucleation score result is “inactive”.

SRAMVKVRSNFRQRK: the amyloid nucleation score result was “inactive”. Take FFRIVSLCSSPGNGEDKDRL: the amyloid nucleation score entry was “inactive”. As to CQHSRRLKGAAYKSCQMYRR, the amyloid nucleation score entry was “inactive”. For MVLKLNESSMIFKDTTYP, the amyloid nucleation score result was “inactive”. With PLGLAILFSSPSTFLYFNFD, the amyloid nucleation score result is “inactive”. For the substance YQNIDYMKGYKVISKD, the amyloid nucleation score result was “inactive”. In turn, FNGMACVFRISFVALRLQGG yielded an amyloid nucleation score of -0.892 ± 1.7.

As for TCTLEFLNY, the amyloid nucleation score result was “inactive”.

Turning to QIPSGVVCGMNGYCLGAVTR, the amyloid nucleation score result was “inactive”. In turn, VYNRRYKSNRNIYSHGNRLK showed an amyloid nucleation score of 1.54 ± 0.1. Consider YNKWCLHLCLRNLSMEEGMD, for which the amyloid nucleation score worked out at 1.87 ± 0.11.

For VTWNHSSCSERKRVRMSGWS, the amyloid nucleation score was 0.801 ± 0.14.

For TWLIY, the amyloid nucleation score entry was “inactive”. Regarding AGTSKMNIYSMHAV, the amyloid nucleation score entry is “inactive”. The value for GVYYSCAFSTLIKGVNRSTV was “inactive”; that for WHVEIIVHNMSFSILKNVGR was 1.65 ± 0.1; that for GSVGILHFGKYHSIVYSACN was “inactive”.

Regarding TSSETNLAYCSAVRGGLRKQ, the amyloid nucleation score entry is “inactive”. On to QDNVKVVGAVGFYDILNGVE, for which the amyloid nucleation score result is “inactive”. As for LTYTYGVGVMIGIITHRLVC, the amyloid nucleation score entry is “inactive”.

For the substance RGVIPLNSKCKL, the amyloid nucleation score entry is “inactive”. For the substance WTSSVILRPSMCLLGWYMLV, the amyloid nucleation score entry was “inactive”. For CMIFGVSLAYVCGCSLYGVG the value was “inactive”; for VLIYRRGFNYLRVLCCTTGF, “inactive”. The value for RVLGKRGGRKH was “inactive”. Consider INNAPFNLPLANK, for which the amyloid nucleation score entry is “inactive”. Regarding LHCSVSSQTELVPTENRGGW, the amyloid nucleation score entry was “inactive”.

Turning to CFCFLIM, the amyloid nucleation score was found to be 1.05 ± 0.21. The value for INWLWFLMHIIQI was “inactive”; that for HSWNFGVCG was 0.229 ± 0.2; that for FMIFDWVTYIKVTVKCWW was “inactive”.

Consider YVGFVARVVRDYNGYQRDTC, for which the amyloid nucleation score result is “inactive”. For the substance FNISIRVDIVISICNNVVFN, the amyloid nucleation score came to 0.596 ± 0.19. With DKDMNEQVS, the amyloid nucleation score entry is “inactive”. As to LVYNQVVHRFLTLVFLSYMS, the amyloid nucleation score entry was “inactive”. Take WRCLYYMQAYSSN: the amyloid nucleation score result was “inactive”. The value for RVIMKIIVTFTA was 0.832 ± 0.23; that for SFNNININIVVFNVAPFSVH was 2.51 ± 0.082. Turning to IIPVTSRDYSRKPYPTLERV, the amyloid nucleation score entry is “inactive”. YKIYIFFGTVYMGVDRDQIG gave an amyloid nucleation score of 2.89 ± 0.063. In the case of FTSLLAVYSIPLQWGATT, the amyloid nucleation score result was “inactive”.

LSIYGDPAYCALFAYECLWL yielded an amyloid nucleation score of 1.93 ± 0.06.

On to HMDSWSYWVIVV, for which the amyloid nucleation score entry is “inactive”.

KIQRYNILSGTCVFI: the amyloid nucleation score amounted to 1.51 ± 0.089. The value for YGFRRTACMCL was “inactive”. For YDLGVAVLNRNSKRSC the value was “inactive”; for LWYFRFNFTAYNYFLWYDTS, “inactive”; for SYNVFPIAEDKNHWNTFC, “inactive”. For ISPYIIVPY, the amyloid nucleation score result was “inactive”. In the case of DAYNVYMMSSRPAHYQGHYL, the amyloid nucleation score result was “inactive”. For RLLVTLQ, the amyloid nucleation score entry is “inactive”. For KNDGTIVQM, the amyloid nucleation score entry is “inactive”.

On to LTFLVRDCCTCSICNDGPSR, for which the amyloid nucleation score was 3.08 ± 0.079. Consider SLGRFDLMCHTKYLSTTVVF, for which the amyloid nucleation score entry is “inactive”. For HHKMVISVSSRNQSEKRSDW the value was “inactive”; for SEFCSNFNQFGC, “inactive”; for TTRKNLKSGLVVSL, “inactive”. In the case of VVSSFMMLVYMNLLNFSNVE, the amyloid nucleation score entry is “inactive”. As to FVRPFGRVFIFQKDFSIKVC, the amyloid nucleation score entry is “inactive”. As to MNGNGRFLVERRMLGSKKSV, the amyloid nucleation score result was “inactive”. Take LHRCSLSKNDSAQSMMLTGC: the amyloid nucleation score result was “inactive”. For EHFNPRNC the value was “inactive”; for TLLLL, “inactive”. In the case of SLEHHQIIYVLARPACL, the amyloid nucleation score result is “inactive”.

With IVFSGNLLVGNGFGVLKRKT, the amyloid nucleation score was 1.32 ± 0.14. VCSHGFCACCRNNKDETWCD displayed an amyloid nucleation score of -0.331 ± 0.66. The value for RSMRSQSSLQAHQSIRSEGR was “inactive”. Take HVVVFDYLLSVLCIVDRVEG: the amyloid nucleation score entry was “inactive”. As for VECCNGLCDDVLGAVGNLGL, the amyloid nucleation score result was “inactive”. Take FSAMTPSGRWHDRSRSDVIN: the amyloid nucleation score entry is “inactive”.

Substance STRMRYICCSCLL returned an amyloid nucleation score of 2.99 ± 0.078. The value for FQKQLASRCTSWSWTRWLVQ was “inactive”. Substance GYMSLLHSKPPFWSNP displayed an amyloid nucleation score of 0.465 ± 0.64.

As to IYTSFVTMERALSMFSPLFH, the amyloid nucleation score entry was “inactive”.

For PFHSVYVDDDAWNGVCLPAV, the amyloid nucleation score entry was “inactive”. PAYLHYSIFWQNVFSNVLIM came in with an amyloid nucleation score of 1.1 ± 0.14. With WTTYLWVAGVLA, the amyloid nucleation score result is “inactive”. Consider DLHMIATMGECMHCEMHL, for which the amyloid nucleation score entry was “inactive”. Regarding GTLLMMVFGTVHS, the amyloid nucleation score result is “inactive”. For HQGFE, the amyloid nucleation score entry was “inactive”. Take LLFML: the amyloid nucleation score result is “inactive”. Regarding IFFSIVSWKDAGCSEAINCQ, the amyloid nucleation score entry was “inactive”.

Regarding SHCYTRVLCTLVVFT, the amyloid nucleation score entry was “inactive”. Regarding TFQDGLLRSDWFIMTLFRRP, the amyloid nucleation score result is “inactive”.

In the case of DVQCGVIMRGLDKYFDLNSA, the amyloid nucleation score entry is “inactive”. As to RWSRGMVSNCRENATWYDAA, the amyloid nucleation score entry is “inactive”. As for GVSMERLKFDIVL, the amyloid nucleation score entry was “inactive”.

Take RMRKSFLFVWIDFILKR: the amyloid nucleation score result is “inactive”. Take RSYGR: the amyloid nucleation score result is “inactive”.

For the substance GYKIW, the amyloid nucleation score result is “inactive”.

For SQQRQVMPKRQSEKLYPSH, the amyloid nucleation score entry was “inactive”. As to RCNLGTAAHFCKY, the amyloid nucleation score entry was “inactive”. The value for LYMNATLSYCGTYCMVTQMV was “inactive”; that for PITMLE was “inactive”; that for LHRLRKWRRLY was “inactive”. For SNASIYRSFWWGKYSRA the value was -0.619 ± 0.82. In the case of RSVQSVFNTIGCQTYVSPVW, the amyloid nucleation score result is “inactive”. In the case of FWNEVMNRLPGLL, the amyloid nucleation score result is “inactive”.

For the substance YAHLWKNSEAGWSGKYSILW, the amyloid nucleation score result was “inactive”. For FDSQGEPVPKPSAMMRGRMC, the amyloid nucleation score result is “inactive”. For the substance VFDSCRTFSMYTDLLGWEWR, the amyloid nucleation score result is “inactive”. The value for RQILSFWP was “inactive”; that for EAWIIMSRVGI was “inactive”. As for MEGFSMIIRDAWKFTCVVEW, the amyloid nucleation score entry was “inactive”. Take VRVRVHVVVVVKLLKMVGAV: the amyloid nucleation score entry is “inactive”.

Consider ASLVKSHDHMRASHLGGLHK, for which the amyloid nucleation score result is “inactive”. Take CDMSCMTKSCPPSYPN: the amyloid nucleation score was -0.395 ± 0.8. In turn, VVRSRTFTSTSYTF displayed an amyloid nucleation score of 0.777 ± 0.23. Take SIPVSCGPLKKDVVREIRVK: the amyloid nucleation score entry is “inactive”. For KVVRVIVSEGNRVIKFTTMP the value was “inactive”. As for VKDSLMGCKIPCN, the amyloid nucleation score result is “inactive”. The value for YTMLFLLLSWNVFFISWCCF was “inactive”; that for FSSMVNVYSLLKVFF was “inactive”; that for CNDLVYFMMFVLYLVTRWET was “inactive”. The value for NDFCLIYYICGS was 0.743 ± 0.17. For AYKAAYAVWCVIINGGLF, the amyloid nucleation score result is “inactive”. For NTGYVVLHKDFHSLASSTKV the value was “inactive”; for PTLCNRGLACDEHSHR, “inactive”.
